In patent US11591580B2, “K85 mutation-containing plant EPSPS mutant, and encoding gene and application thereof” (GEVOTO LLC, priority 2017, dated 2023):

What was measured:
[1] = test system: transgenic rice seedlings; assay: glyphosate resistance of the EPSPS mutant in transgenic rice plants sprayed with glyphosate (Example 8, Table 1); type: in vivo, rice (Nipponbare); details: for glyphosate resistance of transformed rice seedlings (in words): glyphosate sprayed at the 1× dosage; for glyphosate resistance / survival of transformed rice seedlings (in words): 2× glyphosate dosage
Source text: A method for detecting the glyphosate resistance of the G1 soybean EPSPS mutant (SEQ ID NO: 20), G2 soybean EPSPS mutant (SEQ ID NO: 22) and G3 soybean EPSPS mutant (SEQ ID NO: 24) provided in Example 7, the R1 rice EPSPS mutant (SEQ ID NO: 4) provided in Example 5, and the Z1 maize EPSPS mutant (SEQ ID NO: 12) provided in Example 6 in the transgenic rice is as follows:
The plasmids (containing the EPSPS mutant gene) of the monoclonal resistant bacteria of pADV5-EPSPS in Examples 1-7 were extracted by a conventional method, followed by double enzyme digestion by Pac1 and BstEII, the small fragments were collected, and then the small fragments were ligated, using T4 DNA ligase, to the pGVP1 vectors that had undergone the same double enzyme digestion, to obtain a pGVP1-EPSPS vector having a structure as shown in FIG. 8.
In the present example, the glyphosate resistance of the EPSPS mutant in transgenic rice plants were verified. An experiment method is as follows:
The transgenic rice seedlings transplanted were uniformly arranged in a same experiment area (preventing leaves from overlapping). The areas occupied by the experiment groups and the control group were calculated, and according to the areas, glyphosate was sprayed at a 1× dosage of 1060 g/hectare (0.106 g/m^2). 2× dosage was 2120 g/hectare, 5× dosage was 5300 g/hectare, and 20× dosage was 21200 g/hectare.
Commercially available Roundup® 41% ammonium glyphosate was used. Roundup® ammonium glyphosate with corresponding volumes was taken according to the above sprayed concentrations, then diluted with 20 times of volume of water, and then uniformly sprayed on the plants in the experiment groups and the control group. After leaf surfaces were dry, the plants were moved into greenhouse or outdoor to cultivate.
After the glyphosate was sprayed at the 1× dosage, growth states of the plants in each group were observed and recorded on a 10th day, and glyphosate was sprayed to the survived plants at the 2× dosage. The growth states of the plants in each group were observed and recorded 10 days later, and glyphosate was sprayed to the survived plants at the 5× dosage. The growth states of the plants in each group were observed and recorded 10 days later, and glyphosate was sprayed to the survived plants at the 20× dosage. The growth states of the plants in each group were observed and recorded 10 days later, and results are shown in Table 1, wherein corresponding numbers of plants denoted by −, +, ++ and +++ are listed, and “%++&+++” is percentage of plant having medium and high glyphosate resistance to the total number of plants observed.

double knockout E. coli = assay: growth of E. coli transformed by genes encoding soybean EPSPS (wild type and mutants) in culture media containing different glyphosate concentrations (Example 7, FIG. 3); type: cell-based
[2] = 1X dosage (1060 g/hectare glyphosate), recorded on 10th day
[3] = 2X dosage (2120 g/hectare) sprayed to plants surviving 1X, recorded 10 days later
[4] = 5X dosage (5300 g/hectare) sprayed to plants surviving 2X, recorded 10 days later
[5] = 20X dosage (21200 g/hectare) sprayed to plants surviving 5X, recorded 10 days later
[6] = culture media containing 1 mM glyphosate

Row | Molecule | % ++&+++ (percentage of plant having medium and high glyphosate resistance to the total number of plants observed) [1, 2] | number of plants with resistance + (low glyphosate resistance) [1, 2] | number of plants with resistance ++ (medium glyphosate resistance) [1, 2] | number of plants with resistance +++ (high glyphosate resistance) [1, 2] | number of plants with resistance − (no glyphosate resistance) [1, 2] | % ++&+++ (percentage of plant having medium and high glyphosate resistance to the total number of plants observed) [1, 3] | number of plants with resistance + (low glyphosate resistance) [1, 3] | number of plants with resistance ++ (medium glyphosate resistance) [1, 3] | number of plants with resistance +++ (high glyphosate resistance) [1, 3] | number of plants with resistance − (no glyphosate resistance) [1, 3] | % ++&+++ (percentage of plant having medium and high glyphosate resistance to the total number of plants observed) [1, 4] | number of plants with resistance + (low glyphosate resistance) [1, 4] | number of plants with resistance ++ (medium glyphosate resistance) [1, 4] | number of plants with resistance +++ (high glyphosate resistance) [1, 4] | number of plants with resistance − (no glyphosate resistance) [1, 4] | % ++&+++ (percentage of plant having medium and high glyphosate resistance to the total number of plants observed) [1, 5] | number of plants with resistance + (low glyphosate resistance) [1, 5] | number of plants with resistance ++ (medium glyphosate resistance) [1, 5] | number of plants with resistance +++ (high glyphosate resistance) [1, 5] | number of plants with resistance − (no glyphosate resistance) [1, 5] | also measured
1 | G0: wild-type soybean EPSPS represented by SEQ ID NO: 18; control group of Example 7 (protein, Glycine max) MAAAEKPSTAPEIVLEPIKDISGTITLPGSKSLSNRILLLAALSEGTTVVDNLLYSEDIHYMLGALRTLGLRVEDDQTTKQAIVEGCGGLFPTIKESKDEINLFLGNAGTAMRPLTAAVVAAGGNASYVLDGVPRMRERPIGDLVAGLKQLGADVDCFLGTNCPPVRVNGKGGLPGGKVKLSGSVSSQYLTALLMAAPLALGDVEIEIVDKLISVPYVEMTLKLMERFGVSVEHSGDWDKFLVHGGQKYKSPGNAFVEGDASSASYFLAGAAVTGGTITVNGCGTSSLQGDVKFAEVLEKMGAKVTWSENSVTVTGPPQDSSGQKVLQGIDVNMNKMPDVAMTLAVVALFANGQTTIRDVASWRVKETERMIAICTELRKLGATVEEGPDYCVITPPEKLNVTAIDTYDDHRMAMAFSLAACGDVPVTIKDPGCTRKTFPDYFEVLERFTRH | 0.0% | 0 | 0 | 0 | 36 | 0.0% | 0 | 0 | 0 | 36 | 0.0% | 0 | 0 | 0 | 36 | 0.0% | 0 | 0 | 0 | 36 | glyphosate resistance of transformed rice seedlings (in words) [1]: had no resistance and died; growth of transformed E. coli (double knockout E. coli; [6]): substantially could not grow
2 | G1: single-mutation soybean EPSPS mutant, SEQ ID NO: 20, only mutation K98(85)T (protein, Glycine max EPSPS mutant with mutation K98(85)T) MAAAEKPSTAPEIVLEPIKDISGTITLPGSKSLSNRILLLAALSEGTTVVDNLLYSEDIHYMLGALRTLGLRVEDDQTTKQAIVEGCGGLFPTIKESTDEINLFLGNAGTAMRPLTAAVVAAGGNASYVLDGVPRMRERPIGDLVAGLKQLGADVDCFLGTNCPPVRVNGKGGLPGGKVKLSGSVSSQYLTALLMAAPLALGDVEIEIVDKLISVPYVEMTLKLMERFGVSVEHSGDWDKFLVHGGQKYKSPGNAFVEGDASSASYFLAGAAVTGGTITVNGCGTSSLQGDVKFAEVLEKMGAKVTWSENSVTVTGPPQDSSGQKVLQGIDVNMNKMPDVAMTLAVVALFANGQTTIRDVASWRVKETERMIAICTELRKLGATVEEGPDYCVITPPEKLNVTAIDTYDDHRMAMAFSLAACGDVPVTIKDPGCTRKTFPDYFEVLERFTRH | 5.4% | 6 | 2 | 0 | 29 | 0.0% | 4 | 0 | 0 | 33 | 0.0% | 0 | 0 | 0 | 37 | 0.0% | 0 | 0 | 0 | 37 | glyphosate resistance / survival of transformed rice seedlings (in words) [1]: some of the rice seedlings transformed by G1 still survived; glyphosate resistance of transformed rice seedlings (in words) [1]: obviously superior to that of G0; growth of transformed E. coli (double knockout E. coli; [6]): obviously superior to the control group (G0)
3 | G2: single-mutation soybean EPSPS mutant, SEQ ID NO: 22, only mutation P114(101)S but no K98(85)T (protein, Glycine max EPSPS mutant with mutation P114(101)S) MAAAEKPSTAPEIVLEPIKDISGTITLPGSKSLSNRILLLAALSEGTTVVDNLLYSEDIHYMLGALRTLGLRVEDDQTTKQAIVEGCGGLFPTIKESKDEINLFLGNAGTAMRSLTAAVVAAGGNASYVLDGVPRMRERPIGDLVAGLKQLGADVDCFLGTNCPPVRVNGKGGLPGGKVKLSGSVSSQYLTALLMAAPLALGDVEIEIVDKLISVPYVEMTLKLMERFGVSVEHSGDWDKFLVHGGQKYKSPGNAFVEGDASSASYFLAGAAVTGGTITVNGCGTSSLQGDVKFAEVLEKMGAKVTWSENSVTVTGPPQDSSGQKVLQGIDVNMNKMPDVAMTLAVVALFANGQTTIRDVASWRVKETERMIAICTELRKLGATVEEGPDYCVITPPEKLNVTAIDTYDDHRMAMAFSLAACGDVPVTIKDPGCTRKTFPDYFEVLERFTRH | 47.1% | 6 | 5 | 3 | 3 | 0.0% | 0 | 0 | 0 | 17 | 0.0% | 0 | 0 | 0 | 17 | 0.0% | 0 | 0 | 0 | 17 | glyphosate resistance / survival of transformed rice seedlings (in words) [1]: all rice seedlings containing the soybean EPSPS mutant G2 died; glyphosate resistance of transformed rice seedlings (in words) [1]: certain resistance to glyphosate; growth of transformed E. coli (double knockout E. coli; culture media containing 20 mM glyphosate): could grow
